Measured values: patent US8728470B2, “CAB molecules” (Danisco US Inc., priority 2004, dated 2014)

Assay: Immunogenicity after IV or IP administration to normal mice (IgG1 antibodies)
Type: in vivo, CB6F1/J mice
Conditions: 20 ug in alum, days 1, 8 and 15, FIG. 20
Experimental: CAB1.11i and CAB1.2i were diluted in PBS to 200 ug/ml. For the i.p. group (group 5), CAB1.11i was diluted in a 1:1 solution of alum to PBS (resulting concentration=200 ug/ml) and vortexed rapidly for 10 minutes. The mixture was left at 2-8° C. for a minimum of 15 minutes. The mixture was revortexed 1 minute prior to injection into mice. The dosing solution was stored on ice prior to administration.
Wt BLA was diluted in PBS to 400 ug/ml. For the i.p. group, group 4, wt BLA was diluted in a 1:1 solution of alum to a PBS with resulting concentration=200 ug/ml and vortexed rapidly for 10 minutes. The mixture was left at 2-8° C. for a minimum of 15 minutes. The mixture was then revortexed 1 minute prior to injection into mice. The solution was stored on ice prior to administration.
Study design is outlined in Table 7. Female CB6F1/J mice were used for each group. Mice undergoing i.v. injections were placed under a heating lamp for approximately 3 minutes to vasodilate the tail vein, and then placed in a mouse restrainer for the i.v. injection. On days 1, 8 and 15, three mice of each strain each were administered CAB1.2i (20 ug), CAB1.11i (20 ug), or wt BLA (20 ug) intravenously, or wt BLA (20 ug) or CAB1.11i (20 ug) complexed with alum administered by an i.p. injection. Dose concentrations and volumes are outlined in Table 8. Dose concentrations were formulated based on a 100 uL injection/mouse. […]

B1: beta-lactamase: unmodified beta-lactamase protein, SEQ ID NO:11 (protein)
chain: TPVSEKQLAEVVANTITPLMKAQSVPGMAVAVIYQGKPHYYTFGKADIAANKPVTPQTLFELGSISKTFTGVLGGDAIARGEISLDDAVTRYWPQLTGKQWQGIRMLDLATYTAGGLPLQVPDEVTDNASLLRFYQNWQPQWKPGTTRLYANASIGLFGALAVKPSGMPYEQAMTTRVLKPLKLDHTWINVPKAEEAHYAWGYRDGKAVRVSPGMLDAQAYGVKTNVQDMANWVMANMAPENVADASLKQGIALAQSRYWRIGSMYQGLGWEMLNWPVEANTVVETSFGNVALAPLPVAEVNPPAPPVKASWVHKTGSTGGFGSYVAFIPEKQIGIVMLANTSYPNPARVEAAYHILEALQ
modifications: beta-lactamase protein
antibody response (anti-test article IgG1): greatest antibody response
